{"source": "patent EP1914304A1", "tested_on": "Nc1nc2c(ncn2[C@@H]2O[C@H](COP(=O)(O)O)[C@@H](O)[C@H]2O)c(=O)[nH]1", "test": "Michaelis-Menten kinetics of guanylate kinase activity", "assay_type": "biochemical, murine", "settings": "other: Table X", "text": ". […] Table X Kinetic Analysis of Fusion Proteins"}
{"substance": "murine guanylate kinase (gmk), wild-type (Mus musculus)", "values": [{"measurement": "Km", "value": 25, "unit": "µM"}]}
